B1: OR4K15 (parent)
chain: GUUAACGGUCAUAGGCCAUGGAAACUAGGAGCACCAUUUCGCUGCCAGUGAAGAAAUGAACAAAGAAAAUCUGGGCCAGGCAGGCAUCAAAAGAAAUAGUCUUGCGCUCAACCAGAAAGUCUGUAAUCAUUUUAAGGGUA

Variants of: B1
Experiment: self-cleavage, relative activity (ratio to wild type); higher = more cleavage; in vitro, sequencing; the parent is a self-cleaving ribozyme

Variant | self-cleavage
GUUAACGGUCAUAGGCCAUGGAAACUAGGAGCACCAUUUCGCUGCCAGUGAAGCAAUGAACAAAGAAAAUCUGGGCCAGGCAGGCACCAAAAGAAAUAGUCUUGCGCUCAACCAGAAAGUCUGUAAUCAUUUUAAGGGUA | 1.45
GUUAACGGUCAUAGGCCAUGGAAACUAGGAGCACCAUUUCGCUGCCAGUGAAUAAAUGAACAAAGAAAAUCUGGGCCAGGCAGGCAUCAAAAGAAAUAGUCUUGCGCUCAACCAGAAAGUCUGUAAACAUUUUAAGGGUA | 1.92
GUUAACGGUCAUAGGCCAUGGAAACUAGGAGCACCAUUUCGCUGCCAGUGAAGCAAUGAACAAAGAAAAUCUGGGCCAGGCAGGCAUCAAAAGAAAUAGUCUUGCGCUCAACCAGAAAGUCCGUAAUCAUUUUAAGGGUA | 0.42
GUUAACGGUCAUAGGCCAUGGAAACUAGGAGCACCAUUUCGCUGCCAGUGAAGGAAUGAACAAAGAGAAUCUGGGCCAGGCAGGCAUCAAAAGAAAUAGUCUUGCGCUCAACCAGAAAGUCUGUAAUCAUUUUAAGGGUA | 1.57
GUUAACGGUCAUAGGCCAUGGAAACUAGGAGCACCAUUUCGCUGCCAGUGAAGGAAUGAACAAAGUAAAUCUGGGCCAGGCAGGCAUCAAAAGAAAUAGUCUUGCGCUCAACCAGAAAGUCUGUAAUCAUUUUAAGGGUA | 1.14
GUUAACGGUCAUAGGCCAUGGAAACUAGGAGCACCAUUUCGCUGCCAGUGAAGGAAUGAACAAAGAAAAUCUGGGCCAGGCAGGCAUCAAAAGAAAUGGUCUUGCGCUCAACCAGAAAGUCUGUAAUCAUUUUAAGGGUA | 0.33
GUUAACGGUCAUAGGCCAUGGAAACUAGGAGCACCAUUUCGCUGCCAGUGAAGCAAUGAACAAAGAAAAUCUGGGCCAGGCAGGCAUCAAAAGAAAUAGUCUUGCGCUCAACCAGGAAGUCUGUAAUCAUUUUAAGGGUA | 0.17
GUUAACGGUCAUAGGCCAUGGAAACUAGGAGCACCAUUUCGCUGCCAGUGAAGGAAUGAACAAAGAAAAUCUGGGCCAGGCAGGCAUCAAAAGAUAUAGUCUUGCGCUCAACCAGAAAGUCUGUAAUCAUUUUAAGGGUA | 1.53
GUUAACGGUCAUAGGCCAUGGAAACUAGGAGCACCAUUUCGCUGCCAGUGAAGCAAUGAACAAAGAAAAUCUGGGCCAGGCAGGCAUCAAAAGAAAUAGUCUUGCGCUCAACCAGAAGGUCUGUAAUCAUUUUAAGGGUA | 1.49
GUUAACGGUCAUAGGCCAUGGAAACUAGGAGCACCAUUUCGCUGCCAGUGAAGGAAUGAACAAAGAAAAUCUGGGCCAGGCAGGCAUCAAAAGAAAUAGUCUUGCGCUCAACCAGAAAGUCUGUAAUCAUUUUAAGGGUU | 1.25
GUUAACGGUCAUAGGCCAUGGAAACUAGGAGCACCAUUUCGCUGCCAGUGAAGGUAUGAACAAAGAAAAUCUGGGCCAGGCAGGCAUCAAAAGAAAUAGUCUUGCGCUCAACCAGAAAGUCUGUAAUCAUUUUAAGGGUA | 1.55
GUUAACGGUCAUAGGCCAUGGAAACUAGGAGCACCAUUUCGCUGCCAGUGAAGGAAUGAACAAAGAAAAUUUGGGCCAGGCAGGCAUCAAAAGAAAUAGUCUUGCGCUCAACCAGAAAGUCUGUAAUCAUUUUAAGGGUA | 0.58
GUUAACGGUCAUAGGCCAUGGAAACUAGGAGCACCAUUUCGCUGCCAGUGAAGGAAUGAACAAAGAAAAUCUGGGCCGGGCAGGCAUCAAAAGAAAUAGUCUUGCGCUCAACCAGAAAGUCUGUAAUCAUUUUAAGGGUA | 0.3
GUUAACGGUCAUAGGCCAUGGAAACUAGGAGCACCAUUUCGCUGCCAGUGAAUAAAUGAACAAAGAAAAUCUGGGCCAGGCAGGCACCAAAAGAAAUAGUCUUGCGCUCAACCAGAAAGUCUGUAAUCAUUUUAAGGGUA | 0.98
GUUAACGGUCAUAGGCCAUGGAAACUAGGAGCACCAUUUCGCUGCCAGUGAAGGAAUGAACAAAGAAAAUCUGGGCCAGGCAGGUAUCAAAAGAAAUAGUCUUGCGCUCAACCAGAAAGUCUGUAAUCAUUUUAAGGGUA | 1.39
GUUAACGGUCAUAGGCCAUGGAAACUAGGAGCACCAUUUCGCUGCCAGUGAAGGAAUGAACAAAGAAGAUCUGGGCCAGGCAGGCAUCAAAAGAAAUAGUCUUGCGCUCAACCAGAAAGUCUGUAAUCAUUUUAAGGGUA | 0.91
GUUAACGGUCAUAGGCCAUGGAAACUAGGAGCACCAUUUCGCUGCCAGUGAAGGAAUGAGCAAAGAAAAUCUGGGCCAGGCAGGCAUCAAAAGAAAUAGUCUUGCGCUCAACCAGAAAGUCUGUAAUCAUUUUAAGGGUA | 1.02
GUUAACGGUCAUAGGCCAUGGAAACUAGGAGCACCAUUUCGCUGCCAGUGAAGGAAUGAUCAAAGAAAAUCUGGGCCAGGCAGGCAUCAAAAGAAAUAGUCUUGCGCUCAACCAGAAAGUCUGUAAUCAUUUUAAGGGUA | 1.59
GUUAACGGUCAUAGGCCAUGGAAACUAGGAGCACCAUUUCGCUGCCAGUGAAGGAAUGAACAAAGAAAAUCUGGGCCAGGCAGGCAUCAAAAGAAAUAGUCUUGCGCUCAACCAGAAAGUCUGUAGUCAUUUUAAGGGUA | 0.64
GUUAACGGUCAUAGGCCAUGGAAACUAGGAGCACCAUUUCGCUGCCAGUGAAGGAAUGGACAAAGAAAAUCUGGGCCAGGCAGGCAUCAAAAGAAAUAGUCUUGCGCUCAACCAGAAAGUCUGUAAUCAUUUUAAGGGUA | 0.84
GUUAACGGUCAUAGGCCAUGGAAACUAGGAGCACCAUUUCGCUGCCAGUGAAGGAAUGAACAAAGAAAAUCUGGGCCAGGCAGGCAUCAUAAGAAAUAGUCUUGCGCUCAACCAGAAAGUCUGUAAUCAUUUUAAGGGUA | 1.57

Variant | self-cleavage
GUUAACGGUCAUAGGCCAUGGAAACUAGGAGCACCAUUUCGCUGCCAGUGAAGGAAUGAACAAAGAAAAUCUGGGCUAGGCAGGCAUCAAAAGAAAUAGUCUUGCGCUCAACCAGAAAGUCUGUAAUCAUUUUAAGGGUA | 1.46
GUUAACGGUCAUAGGCCAUGGAAACUAGGAGCACCAUUUCGCUGCCAGUGAAGGAAUGAACAAAGAAAAUCUGGGCCAGGCAGGCAUCAAAAGAAAUAGUCUUGCGCUCAACCAGAAGGUCUGUAAUCAUUUUAAGGGUA | 1.08
GUUAACGGUCAUAGGCCAUGGAAACUAGGAGCACCAUUUCGCUGCCAGUGAAGGAAUGAACAAAGAAAAUCUGGGCCAGGCAGGCAUCAAAAGAAAUAGUCUUGCGCUCAACCAGAAUGUCUGUAAUCAUUUUAAGGGUA | 0.84
GUUAACGGUCAUAGGCCAUGGAAACUAGGAGCACCAUUUCGCUGCCAGUGAAGGAAUGAACAAAGAAAAUCUGGGCCAGGCAGGCAUUAAAAGAAAUAGUCUUGCGCUCAACCAGAAAGUCUGUAAUCAUUUUAAGGGUA | 1.51
GUUAACGGUCAUAGGCCAUGGAAACUAGGAGCACCAUUUCGCUGCCAGUGAAGGAAUGAACAAAGAAAAUCUGGGCCAGGCAGGCAUCAAAAGAAAUAGUCUUGCGCUCAACCAGAAAGUCUGUAAUCAUUUUUAGGGUA | 1.32
GUUAACGGUCAUAGGCCAUGGAAACUAGGAGCACCAUUUCGCUGCCAGUGAAGGAAUGAACAAAGAAAAUCUGGGGCAGGCAGGCAUCAAAAGAAAUAGUCUUGCGCUCAACCAGAAAGUCUGUAAUCAUUUUAAGGGUA | 0.22
GUUAACGGUCAUAGGCCAUGGAAACUAGGAGCACCAUUUCGCUGCCAGUGAAGGAAUGAACAAAGAAAAUCUGGGCCAGGCAGGCAUCAAAAGAAAUAGUCUUGCGCUCAACCGGAAAGUCUGUAAUCAUUUUAAGGGUA | 0.4
GUUAACGGUCAUAGGCCAUGGAAACUAGGAGCACCAUUUCGCUGCCAGUGAAGGAAUGAACAAAGAAAAUCUGGGCCAGGCAGGCAUCAAAAGAAAUAGUCUUGCGCUCAACCCGAAAGUCUGUAAUCAUUUUAAGGGUA | 0.09
GUUAACGGUCAUAGGCCAUGGAAACUAGGAGCACCAUUUCGCUGCCAGUGAAGGAAUGAACAAAGAAAAUCUGGGCCAGGCAGGCAUCAAAAGAAAUAGUCUUGCGCUCAACCUGAAAGUCUGUAAUCAUUUUAAGGGUA | 0.07
GUUAACGGUCAUAGGCCAUGGAAACUAGGAGCACCAUUUCGCUGCCAGUGAAGGAAUGAACAAAGAAAAUCUGGGCCAGGCAGGCGUCAAAAGAAAUAGUCUUGCGCUCAACCAGAAAGUCUGUAAUCAUUUUAAGGGUA | 1.28
GUUAACGGUCAUAGGCCAUGGAAACUAGGAGCACCAUUUCGCUGCCAGUGAAUAAAUGAACAAAGAAAAUCAGGGCCAGGCAGGCAUCAAAAGAAAUAGUCUUGCGCUCAACCAGAAAGUCUGUAAUCAUUUUAAGGGUA | 0.19
GUUAACGGUCAUAGGCCAUGGAAACUAGGAGCACCAUUUCGCUGCCAGUGAAGCAAUGAACAAAGAAGAUCUGGGCCAGGCAGGCAUCAAAAGAAAUAGUCUUGCGCUCAACCAGAAAGUCUGUAAUCAUUUUAAGGGUA | 1.03
GUUAACGGUCAUAGGCCAUGGAAACUAGGAGCACCAUUUCGCUGCCAGUGAAGGAAUGAACAAAGAAAAUCUGGGCCAGGCCGGCAUCAAAAGAAAUAGUCUUGCGCUCAACCAGAAAGUCUGUAAUCAUUUUAAGGGUA | 0.13
GUUAACGGUCAUAGGCCAUGGAAACUAGGAGCACCAUUUCGCUGCCAGUGAAUAAAUGAACAAAGAAAACCUGGGCCAGGCAGGCAUCAAAAGAAAUAGUCUUGCGCUCAACCAGAAAGUCUGUAAUCAUUUUAAGGGUA | 1.29
GUUAACGGUCAUAGGCCAUGGAAACUAGGAGCACCAUUUCGCUGCCAGUGAAGGAAUGAACAAAGAAAAUCUGGGCCAGGCAGGCAUCAAAAGAAAUAGUCUUGCGCUCAACCAGAGAGUCUGUAAUCAUUUUAAGGGUA | 1.68
GUUAACGGUCAUAGGCCAUGGAAACUAGGAGCACCAUUUCGCUGCCAGUGAAGGAAUGAACAAAGAAAAUCUGGGCCAGGCAGGCAUCAAAAGAAAUAGUCUUGCGCUCUACCAGAAAGUCUGUAAUCAUUUUAAGGGUA | 1.71
GUUAACGGUCAUAGGCCAUGGAAACUAGGAGCACCAUUUCGCUGCCAGUGAAGGAAUGAACAAAGAAAAUCUGGGCCAGGCAGGCAUCAAAAGAAGUAGUCUUGCGCUCAACCAGAAAGUCUGUAAUCAUUUUAAGGGUA | 1.5
GUUAACGGUCAUAGGCCAUGGAAACUAGGAGCACCAUUUCGCUGCCAGUGAAGCAACGAACAAAGAAAAUCUGGGCCAGGCAGGCAUCAAAAGAAAUAGUCUUGCGCUCAACCAGAAAGUCUGUAAUCAUUUUAAGGGUA | 1.29
GUUAACGGUCAUAGGCCAUGGAAACUAGGAGCACCAUUUCGCUGCCAGUGAAGCAAUGAACAAAGAAAAUCUGGGCCAGGCAGGCAUCAAAAGAAAUAGUCUUGCGCUCAACCAGAAAGCCUGUAAUCAUUUUAAGGGUA | 0.93
GUUAACGGUCAUAGGCCAUGGAAACUAGGAGCACCAUUUCGCUGCCAGUGAAGGAAUGAACAAGGAAAAUCUGGGCCAGGCAGGCAUCAAAAGAAAUAGUCUUGCGCUCAACCAGAAAGUCUGUAAUCAUUUUAAGGGUA | 1.77
